Measurements reported in patent publication US8242083B2, “Kinase substrates” (PerkinElmer Health Sciences, Inc., priority 2008, dated 2012).

What was measured:
Format in all cases: biochemical
ACK = ACK (Homo sapiens, UniProt Q07912); assay: TR-FRET kinase assay, ACK; details: Kinase Concentration 20 nM; 50 nM ULight-labeled substrate, 200 micromolar ATP, 2 hours
Method: (§1) TR-FRET kinase assays are performed under standardized conditions: various individual kinases are incubated with 50 nM of kinase substrate BRB1 labeled with the TR-FRET acceptor dye ULight (PerkinElmer) and 200 micromolar ATP in 10 μL of kinase assay buffer (50 mM HEPES pH7.5, 10 mM MgCl2, 3 mM MnCl2, 1 mM EGTA, 2 mM DTT and 0.01% Tween-20) for 2 hours at room temperature. Reactions are stopped with EDTA, and anti-phospho-tyrosine antibodies (clone PT66) labeled with the TR-FRET europium chelate donor dye are added to a final concentration of 2 nM in a final volume of 20 μL. The TR-FRET signal emitted at 665 nm is read one hour after the addition of antibodies using a TR-FRET plate reader such as the Envision® Multilabel Plate reader (PerkinElmer). The emitted signal at 665 nm is proportional to the extent of peptide phosphorylation, Control reactions indicative of background are performed excluding ATP from the reaction.
(§2) Assay conditions are identical to those used described for FIG. 1.

FAK = FAK (Homo sapiens, UniProt Q05397); assay: TR-FRET kinase assay, FAK; details: Kinase Concentration 3 nM; 50 nM ULight-labeled substrate, 200 micromolar ATP, 2 hours
Method: as §1, §2

ZAP70 = target: T1, ZAP70 (Homo sapiens, UniProt P43403); assay: TR-FRET kinase assay, ZAP70; details: Kinase Concentration 4 nM; 50 nM ULight-labeled substrate, 200 micromolar ATP, 2 hours
T1 sequence (P43403 1-619): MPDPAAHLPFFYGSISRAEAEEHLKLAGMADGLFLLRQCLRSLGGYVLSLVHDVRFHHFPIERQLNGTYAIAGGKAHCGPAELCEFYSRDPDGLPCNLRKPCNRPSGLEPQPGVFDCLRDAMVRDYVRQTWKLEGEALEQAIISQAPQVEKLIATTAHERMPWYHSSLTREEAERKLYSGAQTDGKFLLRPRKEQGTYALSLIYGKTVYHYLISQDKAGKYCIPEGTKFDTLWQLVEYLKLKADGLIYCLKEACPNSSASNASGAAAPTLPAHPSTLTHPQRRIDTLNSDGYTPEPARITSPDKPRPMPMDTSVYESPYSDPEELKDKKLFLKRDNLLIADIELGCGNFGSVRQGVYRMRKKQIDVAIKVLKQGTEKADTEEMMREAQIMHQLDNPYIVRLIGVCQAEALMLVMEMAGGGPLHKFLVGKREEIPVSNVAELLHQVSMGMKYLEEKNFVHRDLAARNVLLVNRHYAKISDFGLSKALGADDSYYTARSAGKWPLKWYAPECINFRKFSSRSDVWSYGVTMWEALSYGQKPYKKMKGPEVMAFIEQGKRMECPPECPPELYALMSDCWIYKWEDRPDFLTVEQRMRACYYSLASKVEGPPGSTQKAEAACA
Method: as §1, §2

Eph4A tyrosine kinase = Eph4A tyrosine kinase (Homo sapiens, UniProt P54764); assay: Stability of TR-FRET signal at 665 nm in kinase assay; details: for Average Signal at 665 nm: Eph4A 2 nM, 50 nM labeled peptide or 200 nM labeled co-polymer, 50 micromolar ATP
Method: as §1
An assay comparing the stability of the random co-polymers poly-EAY, poly-EY and peptide BRB1 (SEQ ID No.3) is performed in 384-well format. Assay conditions are similar to those used in Example 1. The Eph4A tyrosine kinase is assayed at 2 nM with 50 nM of labeled peptide of SEQ ID No. 3, 200 nM labeled poly-EY or 200 nM poly-EAY and 50 micromolar ATP in 10 μL of kinase assay buffer. The reaction mixture is incubated for one hour at room temperature. Reactions are stopped with EDTA, and anti-phospho-tyrosine antibodies (clone PT66) labeled with the TR-FRET europium chelate donor dye are added to a concentration of 2 nM in a final volume of 20 μL. The TR-FRET signal emitted at 665 nm is read one, two, four, 18 and 24 hours after the addition of antibodies using a TR-FRET plate reader.

Sequence of Eph4A tyrosine kinase (P54764 20-986): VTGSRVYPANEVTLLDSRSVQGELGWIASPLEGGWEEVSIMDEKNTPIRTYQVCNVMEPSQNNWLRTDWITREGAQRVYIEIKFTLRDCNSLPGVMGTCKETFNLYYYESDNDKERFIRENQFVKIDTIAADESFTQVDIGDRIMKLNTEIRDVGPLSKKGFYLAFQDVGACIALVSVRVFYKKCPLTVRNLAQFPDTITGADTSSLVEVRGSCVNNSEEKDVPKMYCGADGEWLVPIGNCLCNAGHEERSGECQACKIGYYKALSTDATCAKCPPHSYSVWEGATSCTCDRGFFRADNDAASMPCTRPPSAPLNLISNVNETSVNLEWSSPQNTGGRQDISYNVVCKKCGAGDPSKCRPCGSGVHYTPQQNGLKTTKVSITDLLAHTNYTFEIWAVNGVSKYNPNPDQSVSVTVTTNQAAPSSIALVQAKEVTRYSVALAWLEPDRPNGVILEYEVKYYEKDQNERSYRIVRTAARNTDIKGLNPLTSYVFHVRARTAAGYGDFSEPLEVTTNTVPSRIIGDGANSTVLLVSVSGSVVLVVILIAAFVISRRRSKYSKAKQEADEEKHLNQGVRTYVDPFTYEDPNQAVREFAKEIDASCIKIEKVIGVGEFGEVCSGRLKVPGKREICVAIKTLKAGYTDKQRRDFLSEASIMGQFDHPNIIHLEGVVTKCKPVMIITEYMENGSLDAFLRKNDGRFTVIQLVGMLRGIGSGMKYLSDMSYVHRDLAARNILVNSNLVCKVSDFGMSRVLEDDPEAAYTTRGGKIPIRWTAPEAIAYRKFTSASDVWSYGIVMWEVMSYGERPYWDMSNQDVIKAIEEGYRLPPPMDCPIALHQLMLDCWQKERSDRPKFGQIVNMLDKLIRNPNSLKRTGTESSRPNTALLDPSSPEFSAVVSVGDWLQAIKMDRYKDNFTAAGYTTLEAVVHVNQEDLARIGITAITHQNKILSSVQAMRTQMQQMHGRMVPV
Sequence of FAK (Q05397 whole entry, species assumed): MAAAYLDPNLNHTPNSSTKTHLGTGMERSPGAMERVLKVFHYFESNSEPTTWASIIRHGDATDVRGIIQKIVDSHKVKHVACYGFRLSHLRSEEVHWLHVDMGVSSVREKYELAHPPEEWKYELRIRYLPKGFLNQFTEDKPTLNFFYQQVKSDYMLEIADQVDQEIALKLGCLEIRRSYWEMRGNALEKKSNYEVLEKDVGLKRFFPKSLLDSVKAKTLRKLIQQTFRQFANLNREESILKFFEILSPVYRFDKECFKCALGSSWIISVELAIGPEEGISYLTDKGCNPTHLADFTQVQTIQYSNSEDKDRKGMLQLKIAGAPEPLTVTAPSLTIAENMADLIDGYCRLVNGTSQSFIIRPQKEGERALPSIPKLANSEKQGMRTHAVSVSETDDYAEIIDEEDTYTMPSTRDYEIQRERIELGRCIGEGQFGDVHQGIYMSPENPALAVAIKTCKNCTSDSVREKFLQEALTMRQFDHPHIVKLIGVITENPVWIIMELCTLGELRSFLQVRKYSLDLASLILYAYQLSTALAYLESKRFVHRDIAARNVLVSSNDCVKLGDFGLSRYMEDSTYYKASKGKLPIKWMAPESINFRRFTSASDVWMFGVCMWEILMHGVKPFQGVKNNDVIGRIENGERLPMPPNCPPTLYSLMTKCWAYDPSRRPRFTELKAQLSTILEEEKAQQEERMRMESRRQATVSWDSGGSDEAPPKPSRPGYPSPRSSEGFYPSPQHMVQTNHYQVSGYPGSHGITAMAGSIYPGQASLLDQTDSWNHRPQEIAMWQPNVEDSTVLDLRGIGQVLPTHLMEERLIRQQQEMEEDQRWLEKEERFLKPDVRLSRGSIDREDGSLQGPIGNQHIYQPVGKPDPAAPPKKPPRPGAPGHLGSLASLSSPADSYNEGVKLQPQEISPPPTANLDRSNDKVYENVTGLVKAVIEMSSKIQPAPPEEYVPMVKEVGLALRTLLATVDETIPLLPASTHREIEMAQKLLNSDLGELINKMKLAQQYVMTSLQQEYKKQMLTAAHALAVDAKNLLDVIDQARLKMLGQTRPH
Sequence of ACK (Q07912 whole entry): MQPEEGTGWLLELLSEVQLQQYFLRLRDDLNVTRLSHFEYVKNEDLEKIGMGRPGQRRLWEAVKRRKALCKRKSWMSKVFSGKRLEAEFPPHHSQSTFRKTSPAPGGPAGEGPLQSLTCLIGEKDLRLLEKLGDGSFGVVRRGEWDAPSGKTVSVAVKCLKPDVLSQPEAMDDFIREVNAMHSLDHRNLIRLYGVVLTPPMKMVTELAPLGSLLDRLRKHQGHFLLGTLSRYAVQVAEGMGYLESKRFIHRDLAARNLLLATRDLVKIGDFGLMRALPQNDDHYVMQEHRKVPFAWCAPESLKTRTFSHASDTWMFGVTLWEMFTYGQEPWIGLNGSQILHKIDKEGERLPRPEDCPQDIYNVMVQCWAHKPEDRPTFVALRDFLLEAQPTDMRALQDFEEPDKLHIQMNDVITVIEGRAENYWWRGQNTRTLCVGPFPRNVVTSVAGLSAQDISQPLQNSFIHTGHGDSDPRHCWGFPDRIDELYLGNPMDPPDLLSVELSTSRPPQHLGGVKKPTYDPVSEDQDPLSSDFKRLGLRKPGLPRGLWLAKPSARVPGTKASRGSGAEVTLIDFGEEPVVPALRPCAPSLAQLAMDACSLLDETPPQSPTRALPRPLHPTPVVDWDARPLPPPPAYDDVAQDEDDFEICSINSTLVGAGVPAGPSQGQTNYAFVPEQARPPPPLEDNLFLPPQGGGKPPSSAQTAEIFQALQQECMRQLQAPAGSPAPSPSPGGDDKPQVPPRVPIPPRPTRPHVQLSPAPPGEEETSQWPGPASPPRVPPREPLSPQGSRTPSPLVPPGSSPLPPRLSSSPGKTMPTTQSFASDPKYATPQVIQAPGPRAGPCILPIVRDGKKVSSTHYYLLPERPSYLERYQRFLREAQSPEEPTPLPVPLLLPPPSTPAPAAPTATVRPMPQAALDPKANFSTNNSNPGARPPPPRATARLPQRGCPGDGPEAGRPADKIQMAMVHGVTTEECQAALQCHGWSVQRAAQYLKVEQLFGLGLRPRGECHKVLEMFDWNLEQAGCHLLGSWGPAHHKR

C AYE AYE AYE K EYA EYA EYA K AYA EYE R (CAYEAYEAYEKEYAEYAEYAKAYAEYER; tyrosine kinase substrate peptide) [BRB1]
Signal to Noise ratio with BRB1 Peptide (ACK): 17.3 | Signal to Noise ratio with BRB1 Peptide (FAK): 1.7 | Signal to Noise ratio with BRB1 Peptide (ZAP70): 7.6 | Average Signal at 665 nm (Eph4A tyrosine kinase; Incubation 1 h after addition of antibodies): 134156 | Average Signal at 665 nm (Eph4A tyrosine kinase; Incubation 18 h after addition of antibodies): 117226 | % Decrease of average signal at 665 nm (Eph4A tyrosine kinase; Incubation 18 h versus 1 h): 12.6% | Average Signal at 665 nm (Eph4A tyrosine kinase; Incubation 24 h after addition of antibodies): 115534 | % Decrease of average signal at 665 nm (Eph4A tyrosine kinase; Incubation 24 h versus 1 h): 13.9% | % Decrease of average signal at 665 nm (Eph4A tyrosine kinase; Incubation 24 h versus 1 h, listed as SEQ ID No. 3): 14% | Stability of specific TR-FRET signal at 665 nm over time (Eph4A tyrosine kinase; after addition of europium-labeled anti-phospho-tyrosine antibody): more stable
